Data published in patent publication US20170145113A1 (Genentech, published 2017).
Blank lines part the entries; values can stand above or below the molecule they belong to.

Legend:
[1] = target: h15H6.v1 HC-A71R variant; experiment: phage competition ELISA: phage-displayed Fab preincubated with soluble murine HtrA1, unbound phage captured on coated huHtrA1-PD-His, OD450
[2] = target: h15H6.v1 LC-S49Y variant; experiment: as above
[3] = target: T1, His-tagged human HtrA1 protease domain (human, UniProt Q92743 161-367); experiment: SPR (BIACORE), Fab
T1 construct: His-tagged protease domain; also called huHtrA1-PD-His; huHtrA1-PD
T1 sequence (Q92743 other isoform, or with tags, fused parts or gaps limits assumed): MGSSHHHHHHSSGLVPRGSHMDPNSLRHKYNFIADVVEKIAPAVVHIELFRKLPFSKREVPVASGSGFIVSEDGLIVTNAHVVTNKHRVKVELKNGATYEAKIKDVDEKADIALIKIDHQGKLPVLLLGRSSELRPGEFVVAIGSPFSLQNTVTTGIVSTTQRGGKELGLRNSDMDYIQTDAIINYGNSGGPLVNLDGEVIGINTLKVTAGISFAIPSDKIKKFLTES

[4] = target: T1, His-tagged human HtrA1 protease domain; experiment: BIACORE SPR analysis, Fab format
Protocol: To determine the binding affinity of selected Fab variants for HtrA1, SPR measurement with a BIACORE™ T200 instrument was performed. Briefly, a series S sensor chip CM5 was activated with 1-EDC and NHS reagents according to the supplier's instructions, and anti-His antibody was coupled to achieve 200-300 response units (RU), then following by blocking un-reacted groups with 1 M ethanolamine. For kinetics measurements, approximately 5 nM of huHtrA1-PD-His was first injected at 10 μl/min flow rate to capture approximately 100 RU at 2 different flow cells (FC), except for FC1 (which served as a reference). Next, 5-fold serial dilutions of Fab in HBS-P buffer (0.01M HEPES pH 7.4, 0.15M NaCl, 0.005% surfactant P20) from low (0.8 nM) to high (50 nM) were injected (flow rate: 30 μl/min). The binding responses on HtrA1 were corrected by subtracting of RU from a blank flow cell. The sensorgram was recorded and subject to reference and buffer subtraction before evaluating by BIACORE® T200 Evaluation Software (version 2.0). Association rates (kₒₙ) and dissociation rates (koff) were calculated using a simple one-to-one Langmuir binding model. The equilibrium dissociation constant (KD) was calculated as the ratio of koff/kₒₙ.

[5] = target: T2, LA-pep3; experiment: SPR, peptide and Fab
T2 construct: The changed residue is printed as an image; A is put in by the column 'AA change' (L3A); also called L3A
T2 peptide: RKAPFSKREVPV

[6] = target: T3, LA-pep6; experiment: SPR, peptide and Fab
T3 construct: The changed residue is printed as an image; A is put in by the column 'AA change' (R8A); also called R8A
T3 peptide: RKLPFSKAEVPV

[7] = target: T4, LA-pep5; experiment: SPR, peptide and Fab
T4 construct: The changed residue is printed as an image; A is put in by the column 'AA change' (F5A); also called F5A
T4 peptide: RKLPASKREVPV

[8] = target: T5, LA-pep4; experiment: SPR, peptide and Fab
T5 construct: The changed residue is printed as an image; A is put in by the column 'AA change' (P4A); also called P4A
T5 peptide: RKLAFSKREVPV

[9] = target: T6, LA-pep2; experiment: SPR, peptide and Fab
T6 construct: The changed residue is printed as an image; A is put in by the column 'AA change' (R1A); also called R1A
T6 peptide: AKLPFSKREVPV

[10] = target: endogenous HtrA1 from media of HtrA1-secreting human C32 melanoma cells (human, UniProt Q92743 23-480); experiment: cell-based or functional assay
Sequence of endogenous HtrA1 from media of HtrA1-secreting human C32 melanoma cells (Q92743 23-480 limits assumed): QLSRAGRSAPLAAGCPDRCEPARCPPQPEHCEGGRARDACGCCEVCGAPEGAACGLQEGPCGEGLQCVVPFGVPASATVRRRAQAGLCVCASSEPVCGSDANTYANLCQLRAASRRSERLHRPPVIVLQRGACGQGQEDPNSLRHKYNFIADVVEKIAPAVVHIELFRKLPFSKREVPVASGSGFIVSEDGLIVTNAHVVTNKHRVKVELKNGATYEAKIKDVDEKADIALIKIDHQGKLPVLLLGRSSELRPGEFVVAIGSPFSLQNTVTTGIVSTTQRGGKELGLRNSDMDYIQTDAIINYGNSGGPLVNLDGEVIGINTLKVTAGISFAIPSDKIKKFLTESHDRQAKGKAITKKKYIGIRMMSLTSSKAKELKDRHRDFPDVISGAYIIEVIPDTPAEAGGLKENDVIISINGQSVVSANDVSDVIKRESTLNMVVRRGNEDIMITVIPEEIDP

[11] = target: T1, His-tagged human HtrA1 protease domain; experiment: cell-based or functional assay
[12] = target: T1, His-tagged human HtrA1 protease domain; experiment: cell-based or functional assay; remark: listed apart in the source
[13] = target: T1, His-tagged human HtrA1 protease domain; experiment: BIACORE T200 SPR; Fab analyte over huHtrA1-PD-His captured by anti-His antibody
[14] = target: T7, LA-pep1, peptide corresponding to residues 190-201 of the human HtrA1 sequence (human); experiment: SPR, peptide and Fab
T7 construct: Synthetic peptide; numbering of the human HtrA1 precursor protein; also called LA-pepl; HtrA1 Loop A (LA) peptide
T7 peptide: RKLPFSKREVPV

[15] = target: T8, His-tagged recombinant murine HtrA1 protease domain (murine, UniProt Q9R118 156-367); experiment: ELISA, antigen coated on plate, hybridoma clone
T8 construct: His-tagged protease domain; also called muHtrA1-PD-His; muHtrA1-PD
Protocol: (§1) ELISA was performed according to a standard protocol. Briefly, 96-well microliter ELISA plates (Greiner, Germany) were coated with 100 μl/well muHtrA1-PD-His or huHtrA1-PD-His (SEQ ID NO: 154) at 2 μg/ml in 0.05 M carbonate buffer (pH 9.6) at 4° C. overnight. After washing three times with wash buffer (0.05% TWEEN®20 in PBS, Sigma), plates were blocked with 100 μl ELISA assay diluents with BSA. 100 μl of cultured supernatants or diluted purified monoclonal antibodies (mAbs) were added and incubated for 1 h at room temperature. The plates were washed three times and incubated with HRP-conjugated goat anti-mouse IgG Fc for 1 h. After washing three times, bound enzyme was detected by addition of 100 μl/well of the TMB substrate (BioFX Laboratories) for 5 min. The reactions were stopped by adding 100 μl/well of stop reagent (BioFX Laboratories), followed by detection of color at absorbance 650 nm (A_{650 nm}).

[16] = target: T1, His-tagged human HtrA1 protease domain; experiment: ELISA, antigen coated on plate, hybridoma clone
Protocol: as §1

[17] = target: T9, murine HtrA3 protease domain (murine, UniProt Q9D236 135-350, limits assumed); experiment: ELISA, hybridoma clone
T9 construct: domain: PD (protease domain); also called muHtrA3-PD; murine HtrA3-PD
T9 sequence (looked up): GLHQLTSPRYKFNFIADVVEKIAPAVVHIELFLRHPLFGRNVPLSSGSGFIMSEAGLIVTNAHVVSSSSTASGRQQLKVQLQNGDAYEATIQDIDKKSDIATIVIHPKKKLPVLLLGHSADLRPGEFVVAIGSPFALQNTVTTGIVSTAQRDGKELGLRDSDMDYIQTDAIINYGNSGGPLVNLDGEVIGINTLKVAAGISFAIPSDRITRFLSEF

[18] = target: T10, murine HtrA4 protease domain (murine, UniProt A2RT60 160-371, limits assumed); experiment: ELISA, hybridoma clone
T10 construct: domain: PD (protease domain); also called muHtrA4-PD; murine HtrA4-PD
T10 sequence (looked up): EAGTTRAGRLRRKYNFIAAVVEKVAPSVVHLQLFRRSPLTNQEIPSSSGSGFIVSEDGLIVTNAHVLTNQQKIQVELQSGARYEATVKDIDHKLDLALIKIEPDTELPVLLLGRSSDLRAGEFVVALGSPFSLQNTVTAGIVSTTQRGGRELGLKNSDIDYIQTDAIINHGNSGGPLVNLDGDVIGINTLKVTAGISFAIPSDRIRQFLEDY

[19] = target: purified full-length human HtrA1 (human, UniProt Q92743 23-480); experiment: cell-based or functional assay
Sequence of purified full-length human HtrA1 (Q92743 23-480): as the sequence (Q92743 23-480 limits assumed) above

[20] = target: purified full-length murine HtrA1 (murine, UniProt Q9R118 23-480); experiment: cell-based or functional assay

Molecule: His-tagged recombinant murine HtrA1 protease domain (from UniProt Q9R118 156-367) (enzyme)
IC50 (read off the curve) [1]: 100 pM
IC50 (read off the curve) [2]: 600 pM

B2: anti-HtrA1 hybridoma antibody clone 3A5 (antibody, V domains shown)
VH: DVHLVESGGGLVRPGGSRKLSCEASGFTFSSFGMHWVRQAPEKGLEWVAFITSDSSTIYYADTVKGRFTISRDNPKNTLFLQMTSLRSEDTAMYYCTRSGDDYLDYWGQGTTLTVSS
VL: DIVLTQSPASLAVSLGQRATISCRASQSVSTSSSSYMHWYQQKPGQPPKVFIKYASNLESGVPARFSGSGSGTDFTLSIHPVEEEDTATYYCQHSWEIPFTFGGGTKLEIK
binding result [15]: binds
binding result [16]: binds
binding result [17]: no binding
binding result [18]: no binding

Now from value to molecule, other results behind:

fold improvement in affinity against YW505.94a.28 Fab [3]: ~30 fold
Kd [4]: 106 pM
koff [4]: 3.29e-05 s⁻¹
kon [4]: 309000 M⁻¹ s⁻¹
affinity loss (KD mutant/KD wild-type) [5]: > 2500 fold
affinity loss (KD mutant/KD wild-type) [6]: > 2500 fold
Kd [7]: 4530 pM
affinity loss (KD mutant/KD wild-type) [7]: 11 fold
affinity loss (KD mutant/KD wild-type) [8]: > 2500 fold
Kd [9]: 321000 pM
affinity loss (KD mutant/KD wild-type) [9]: 810 fold
IC50, endogenous HtrA1 activity assay (H2-Opt) [10]: ~1120 pM
IC50, FRET-based H2-Opt blocking assay [11]: ~386 pM
IC50, mass spectrometry-based activity assay (cleavage of intact α-casein) [11]: ~45000 pM
IC50 FRET (H2-Opt substrate cleavage) [12]: 300 pM
IC90 FRET (H2-Opt substrate cleavage) [12]: 1190 pM
Max inhibition (FRET H2-Opt assay) [12]: 100
Kd [13]: 106 pM
koff [13]: 3.29e-05 s⁻¹
kon [13]: 309000 M⁻¹ s⁻¹
Kd [14]: 400 pM
B1: h15H6.v4 Fab (Fab, V domains shown)
VH: EVQLVQSGAEVKKPGASVKVSCKASGYKFTDSEMHWVRQAPGQGLEWIGGVDPETEGAAYNQKFKGRATITRDTSTSTAYLELSSLRSEDTAVYYCTRGYDYDYALDYWGQGTLVTVSS
VL: DIQMTQSPSSLSASVGDRVTITCRASSSVEFIHWYQQKPGKAPKPLISATSNLASGVPSRFSGSGSGTDFTLTISSLQPEDFATYYCQQWSSAPWTFGQGTKVEIK
notes: Tested as Fab; also called APEG.LC3.HC3; Fab15H6.v4
binding result [5]: no binding (tested: no binding detected up to 1 µM)
binding result [6]: no binding (tested: no binding detected up to 1 µM)
binding result [8]: no binding (tested: no binding detected up to 1 µM)

IC50, FRET blocking assay, recombinant antibody from 293 cells [19]: ~700 pM
IC50, FRET-based blocking assay (H2-Opt cleavage) [19]: 700 pM
fold improvement of IC50 against YW505.94 [19]: ~2 fold
IC50, FRET-based blocking assay (H2-Opt cleavage) [20]: 1100 pM
fold improvement of IC50 against YW505.94 [20]: ~5 fold
binding result [17]: no binding
binding result [18]: no binding
B3: anti-HtrA1 hybridoma antibody clone 15H6 (antibody, V domains shown)
VH: QVQLQQSGAELVRPGASVTLSCKASGYTFTDSEMHWVKQTPVHGLEWIGGVDPETDGAAYNQKFKGKATLTADKSSSTAYMELRSLTSEDSAVYYCTRGYDYDYALDYWGQGTSVTVSS
VL: QIVLSQSPAILSASPGEKVTMTCRASSSVNFIHWYQQKPGSSPKPWISATSNLASGVPPRFSGSGSGTSYSLTISRVEAEDAATYYCQQWSSNPWTFGGGTKLEIK
notes: Murine mIgG2a, from hybridoma or recombinant from 293 cells; also called m15H6

binding result [15]: binds
binding result [16]: binds
binding result [17]: no binding
binding result [18]: no binding
B4: anti-HtrA1 hybridoma antibody clone 20E2 (antibody, V domains shown)
VH: EVKLVESGGGLVQPGGSLKLSCAASGFTFSSYIMSWVRQTPEKRLEWVAYISNGGGTTYYPDTIKGRFTISRDNAKNTLYLQMNTLKSEDTAIYFCARQNFRSDGSSMDYWGQGTSVTVSS
VL: NIVLTQSPASLAVSLGQRATISCRASESVDTSGRSFMHWYQQKPGQPPRLLIYLASKLESGVPARFSGSGSRTDFTLTIDPVEADDAATYYCQQNNEDPYTFGGGTNLEIK
